Reference: patent publication US20150057236A1 (CORNELL UNIVERSITY, published 2015)
*1 amine or outer side, *2 acyl side, *3 side chain or, on linkers, in order; H or OH if unused. Where no end group is shown, it is not given here. The star is where a group is joined. thiosuccinyl = thiosuccinyl group on a lysine side chain (thiosuccinyl lysine); AMC = Cc1cc(=O)oc2cc(N*)ccc12; Suc = O=C(CCC(=O)[*:2])[*:1]

How the values were obtained:
Assay in all cases: cell-based or functional assay
human Sirt2 = biological target: T1, human Sirt2 (human, UniProt Q8IXJ6 1-389, limits assumed)
T1 sequence (looked up): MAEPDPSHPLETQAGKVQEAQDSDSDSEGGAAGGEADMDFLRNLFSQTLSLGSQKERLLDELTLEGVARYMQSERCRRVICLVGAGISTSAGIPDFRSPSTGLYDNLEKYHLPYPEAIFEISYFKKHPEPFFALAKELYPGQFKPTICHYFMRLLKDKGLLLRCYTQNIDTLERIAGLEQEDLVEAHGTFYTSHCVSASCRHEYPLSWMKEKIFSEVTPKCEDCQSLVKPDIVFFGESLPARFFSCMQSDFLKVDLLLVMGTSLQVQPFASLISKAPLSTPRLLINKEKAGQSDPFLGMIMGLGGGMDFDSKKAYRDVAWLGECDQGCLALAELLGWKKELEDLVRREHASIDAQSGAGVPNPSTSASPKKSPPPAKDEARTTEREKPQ

human Sirt5 [1] = biological target: T2, human Sirt5 (human, UniProt Q9NXA8 1-310, limits assumed)
human Sirt1 = biological target: T3, human Sirt1 (human, UniProt Q96EB6 1-747, limits assumed)
T3 sequence (looked up): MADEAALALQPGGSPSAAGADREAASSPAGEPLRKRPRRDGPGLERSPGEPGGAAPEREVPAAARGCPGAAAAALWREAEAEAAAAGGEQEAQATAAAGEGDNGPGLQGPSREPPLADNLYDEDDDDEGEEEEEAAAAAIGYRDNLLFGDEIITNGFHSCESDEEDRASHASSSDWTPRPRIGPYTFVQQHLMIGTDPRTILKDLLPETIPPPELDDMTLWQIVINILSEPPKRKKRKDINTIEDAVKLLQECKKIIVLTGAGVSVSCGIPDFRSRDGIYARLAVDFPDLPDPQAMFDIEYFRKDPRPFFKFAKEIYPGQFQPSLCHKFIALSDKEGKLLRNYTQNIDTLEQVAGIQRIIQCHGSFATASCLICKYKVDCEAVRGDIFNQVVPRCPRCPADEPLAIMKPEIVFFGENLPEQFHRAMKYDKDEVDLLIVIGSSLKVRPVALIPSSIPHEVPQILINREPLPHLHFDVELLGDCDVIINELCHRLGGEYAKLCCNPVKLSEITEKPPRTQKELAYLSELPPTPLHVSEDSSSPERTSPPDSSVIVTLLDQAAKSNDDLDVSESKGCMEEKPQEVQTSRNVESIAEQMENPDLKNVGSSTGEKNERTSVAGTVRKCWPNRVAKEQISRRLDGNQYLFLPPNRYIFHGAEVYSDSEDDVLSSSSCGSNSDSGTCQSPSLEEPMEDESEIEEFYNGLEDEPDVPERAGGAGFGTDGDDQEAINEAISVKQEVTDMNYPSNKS

human Sirt3 = biological target: T4, human Sirt3 (human, UniProt Q9NTG7 102-399, limits assumed)
T4 sequence (looked up): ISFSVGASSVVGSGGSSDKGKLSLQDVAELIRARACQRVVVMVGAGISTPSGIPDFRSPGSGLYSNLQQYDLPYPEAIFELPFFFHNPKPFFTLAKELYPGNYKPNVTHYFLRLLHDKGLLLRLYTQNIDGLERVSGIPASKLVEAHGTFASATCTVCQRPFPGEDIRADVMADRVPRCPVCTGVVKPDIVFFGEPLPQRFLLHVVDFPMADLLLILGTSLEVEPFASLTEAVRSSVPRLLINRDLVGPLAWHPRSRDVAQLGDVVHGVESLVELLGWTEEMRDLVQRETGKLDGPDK

human Sirt5 [2] = biological target: T2, human Sirt5; remark: listed apart in the source

T2 sequence (Q9NXA8 whole entry): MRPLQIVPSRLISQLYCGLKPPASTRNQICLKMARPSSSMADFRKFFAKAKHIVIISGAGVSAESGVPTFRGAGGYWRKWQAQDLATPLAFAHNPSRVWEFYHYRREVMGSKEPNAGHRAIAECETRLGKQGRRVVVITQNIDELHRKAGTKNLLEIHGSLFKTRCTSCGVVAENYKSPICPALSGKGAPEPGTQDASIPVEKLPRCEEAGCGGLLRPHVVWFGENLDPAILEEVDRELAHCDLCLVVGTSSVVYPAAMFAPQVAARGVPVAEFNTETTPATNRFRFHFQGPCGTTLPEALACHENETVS

## KQTARK(thiosuccinyl)STGGKA [H3K9 thiosuccinyl (H3K9 TSu) peptide, KQTAR(TSuK)STGGKA]
Human Sirt2
  IC50 (µM), inhibition of sirtuin deacylase activity: > 100 µM
Human Sirt5 [1]
  IC50 (µM), inhibition of sirtuin deacylase activity: 5 µM
Human Sirt1
  IC50 (µM), inhibition of sirtuin deacylase activity: > 100 µM
Human Sirt3
  IC50 (µM), inhibition of sirtuin deacylase activity: > 100 µM

## ISGASEK(Suc)-{AMC} [ISGASE(SuK)-AMC peptide]
Human Sirt5 [2]
  fluorescence increase against control without Sirt5, 1 µM Sirt5: 11 fold
  fluorescence increase against control without Sirt5, 2 µM Sirt5: 20 fold
  fluorescence increase against control without Sirt5, 5 µM Sirt5: 26 fold

## KQTARK(Suc)-{AMC} [KQTAR(SuK)-AMC peptide]
Human Sirt5 [2]
  fluorescence increase against control without Sirt5 (fluorogenic assay): ~3 fold
